In article PMC10540216, “Activity Guided Azide-methyllysine Photo-trapping for Substrate Profiling of Lysine Demethylases” (Journal of the American Chemical Society, 2023):

System: KDM4A-I71AzF
Assay: CASI: photo-crosslinking with HEK293T cell extracts, StrepTactin enrichment and LC-MS/MS proteomics;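 note: lysates from HEK293T cells pretreated with a KDM4 inhibitor to raise proteome methylation, affinity-purified after ±UV, gel-resolved, trypsin-digested, with exclusive unique peptides per protein averaged per condition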
Assay type: binding, human
Settings: sheet "Final results but with 0.01"

B1: ILF3_HUMAN (protein, UniProt Q12906 1-894, looked up)
Interleukin enhancer-binding …: MRPMRIFVNDDRHVMAKHSSVYPTQEELEAVQNMVSHTERALKAVSDWIDEQEKGSSEQAESDNMDVPPEDDSKEGAGEQKTEHMTRTLRGVMRVGLVAKGLLLKGDLDLELVLLCKEKPTTALLDKVADNLAIQLAAVTEDKYEILQSVDDAAIVIKNTKEPPLSLTIHLTSPVVREEMEKVLAGETLSVNDPPDVLDRQKCLAALASLRHAKWFQARANGLKSCVIVIRVLRDLCTRVPTWGPLRGWPLELLCEKSIGTANRPMGAGEALRRVLECLASGIVMPDGSGIYDPCEKEATDAIGHLDRQQREDITQSAQHALRLAAFGQLHKVLGMDPLPSKMPKKPKNENPVDYTVQIPPSTTYAITPMKRPMEEDGEEKSPSKKKKKIQKKEEKAEPPQAMNALMRLNQLKPGLQYKLVSQTGPVHAPIFTMSVEVDGNSFEASGPSKKTAKLHVAVKVLQDMGLPTGAEGRDSSKGEDSAEETEAKPAVVAPAPVVEAVSTPSAAFPSDATAEQGPILTKHGKNPVMELNEKRRGLKYELISETGGSHDKRFVMEVEVDGQKFQGAGSNKKVAKAYAALAALEKLFPDTPLALDANKKKRAPVPVRGGPKFAAKPHNPGFGMGGPMHNEVPPPPNLRGRGRGGSIRGRGRGRGFGGANHGGYMNAGAGYGSYGYGGNSATAGYSQFYSNGGHSGNASGGGGGGGGGSSGYGSYYQGDNYNSPVPPKHAGKKQPHGGQQKPSYGSGYQSHQGQQQSYNQSPYSNYGPPQGKQKGYNHGQGSYSYSNSYNSPGGGGGSDYNYESKFNYSGSGGRSGGNSYGSGGASYNPGSHGGYGGGSGGGSSYQGKQGGYSQSNYNSPGSGQNYSGPPSSYQSSQGGYGRNADHSMNYQYR
- Fold change (+UV/-UV): 0.5

B2: HXK1_HUMAN (protein, UniProt P19367 1-917, looked up)
Hexokinase-1: MIAAQLLAYYFTELKDDQVKKIDKYLYAMRLSDETLIDIMTRFRKEMKNGLSRDFNPTATVKMLPTFVRSIPDGSEKGDFIALDLGGSSFRILRVQVNHEKNQNVHMESEVYDTPENIVHGSGSQLFDHVAECLGDFMEKRKIKDKKLPVGFTFSFPCQQSKIDEAILITWTKRFKASGVEGADVVKLLNKAIKKRGDYDANIVAVVNDTVGTMMTCGYDDQHCEVGLIIGTGTNACYMEELRHIDLVEGDEGRMCINTEWGAFGDDGSLEDIRTEFDREIDRGSLNPGKQLFEKMVSGMYLGELVRLILVKMAKEGLLFEGRITPELLTRGKFNTSDVSAIEKNKEGLHNAKEILTRLGVEPSDDDCVSVQHVCTIVSFRSANLVAATLGAILNRLRDNKGTPRLRTTVGVDGSLYKTHPQYSRRFHKTLRRLVPDSDVRFLLSESGSGKGAAMVTAVAYRLAEQHRQIEETLAHFHLTKDMLLEVKKRMRAEMELGLRKQTHNNAVVKMLPSFVRRTPDGTENGDFLALDLGGTNFRVLLVKIRSGKKRTVEMHNKIYAIPIEIMQGTGEELFDHIVSCISDFLDYMGIKGPRMPLGFTFSFPCQQTSLDAGILITWTKGFKATDCVGHDVVTLLRDAIKRREEFDLDVVAVVNDTVGTMMTCAYEEPTCEVGLIVGTGSNACYMEEMKNVEMVEGDQGQMCINMEWGAFGDNGCLDDIRTHYDRLVDEYSLNAGKQRYEKMISGMYLGEIVRNILIDFTKKGFLFRGQISETLKTRGIFETKFLSQIESDRLALLQVRAILQQLGLNSTCDDSILVKTVCGVVSRRAAQLCGAGMAAVVDKIRENRGLDRLNVTVGVDGTLYKLHPHFSRIMHQTVKELSPKCNVSFLLSEDGSGKGAALITAVGVRLRTEASS
- Fold change (+UV/-UV): 1

B3: NU107_HUMAN (protein, UniProt P57740 1-925, looked up)
Nuclear pore complex protein …: MDRSGFGEISSPVIREAEVTRTARKQSAQKRVLLQASQDENFGNTTPRNQVIPRTPSSFRQPFTPTSRSLLRQPDISCILGTGGKSPRLTQSSGFFGNLSMVTNLDDSNWAAAFSSQRSGLFTNTEPHSITEDVTISAVMLREDDPGEAASMSMFSDFLQSFLKHSSSTVFDLVEEYENICGSQVNILSKIVSRATPGLQKFSKTASMLWLLQQEMVTWRLLASLYRDRIQSALEEESVFAVTAVNASEKTVVEALFQRDSLVRQSQLVVDWLESIAKDEIGEFSDNIEFYAKSVYWENTLHTLKQRQLTSYVGSVRPLVTELDPDAPIRQKMPLDDLDREDEVRLLKYLFTLIRAGMTEEAQRLCKRCGQAWRAATLEGWKLYHDPNVNGGTELEPVEGNPYRRIWKISCWRMAEDELFNRYERAIYAALSGNLKQLLPVCDTWEDTVWAYFRVMVDSLVEQEIQTSVATLDETEELPREYLGANWTLEKVFEELQATDKKRVLEENQEHYHIVQKFLILGDIDGLMDEFSKWLSKSRNNLPGHLLRFMTHLILFFRTLGLQTKEEVSIEVLKTYIQLLIREKHTNLIAFYTCHLPQDLAVAQYALFLESVTEFEQRHHCLELAKEADLDVATITKTVVENIRKKDNGEFSHHDLAPALDTGTTEEDRLKIDVIDWLVFDPAQRAEALKQGNAIMRKFLASKKHEAAKEVFVKIPQDSIAEIYNQCEEQGMESPLPAEDDNAIREHLCIRAYLEAHETFNEWFKHMNSVPQKPALIPQPTFTEKVAHEHKEKKYEMDFGIWKGHLDALTADVKEKMYNVLLFVDGGWMVDVREDAKEDHERTHQMVLLRKLCLPMLCFLLHTILHSTGQYQECLQLADMVSSERHKLYLVFSKEELRKLLQKLRESSLMLLDQGLDPLGYEIQL
- Fold change (+UV/-UV): 2

B4: LMNB2_HUMAN (protein, UniProt Q03252 1-617, looked up)
Lamin-B2: MSPPSPGRRREQRRPRAAATMATPLPGRAGGPATPLSPTRLSRLQEKEELRELNDRLAHYIDRVRALELENDRLLLKISEKEEVTTREVSGIKALYESELADARRVLDETARERARLQIEIGKLRAELDEVNKSAKKREGELTVAQGRVKDLESLFHRSEVELAAALSDKRGLESDVAELRAQLAKAEDGHAVAKKQLEKETLMRVDLENRCQSLQEELDFRKSVFEEEVRETRRRHERRLVEVDSSRQQEYDFKMAQALEELRSQHDEQVRLYKLELEQTYQAKLDSAKLSSDQNDKAASAAREELKEARMRLESLSYQLSGLQKQASAAEDRIRELEEAMAGERDKFRKMLDAKEQEMTEMRDVMQQQLAEYQELLDVKLALDMEINAYRKLLEGEEERLKLSPSPSSRVTVSRATSSSSGSLSATGRLGRSKRKRLEVEEPLGSGPSVLGTGTGGSGGFHLAQQASASGSVSIEEIDLEGKFVQLKNNSDKDQSLGNWRIKRQVLEGEEIAYKFTPKYILRAGQMVTVWAAGAGVAHSPPSTLVWKGQSSWGTGESFRTVLVNADGEEVAMRTVKKSSVMRENENGEEEEEEAEFGEEDLFHQQGDPRTTSRGC
- Fold change (+UV/-UV): 0.5

B5: SYG_HUMAN (protein, UniProt P41250 37-739, looked up)
Glycine--tRNA ligase: SAASCPPISLPAAASRSSMDGAGAEEVLAPLRLAVRQQGDLVRKLKEDKAPQVDVDKAVAELKARKRVLEAKELALQPKDDIVDRAKMEDTLKRRFFYDQAFAIYGGVSGLYDFGPVGCALKNNIIQTWRQHFIQEEQILEIDCTMLTPEPVLKTSGHVDKFADFMVKDVKNGECFRADHLLKAHLQKLMSDKKCSVEKKSEMESVLAQLDNYGQQELADLFVNYNVKSPITGNDLSPPVSFNLMFKTFIGPGGNMPGYLRPETAQGIFLNFKRLLEFNQGKLPFAAAQIGNSFRNEISPRSGLIRVREFTMAEIEHFVDPSEKDHPKFQNVADLHLYLYSAKAQVSGQSARKMRLGDAVEQGVINNTVLGYFIGRIYLYLTKVGISPDKLRFRQHMENEMAHYACDCWDAESKTSYGWIEIVGCADRSCYDLSCHARATKVPLVAEKPLKEPKTVNVVQFEPSKGAIGKAYKKDAKLVMEYLAICDECYITEMEMLLNEKGEFTIETEGKTFQLTKDMINVKRFQKTLYVEEVVPNVIEPSFGLGRIMYTVFEHTFHVREGDEQRTFFSFPAVVAPFKCSVLPLSQNQEFMPFVKELSEALTRHGVSHKVDDSSGSIGRRYARTDEIGVAFGVTIDFDTVNKTPHTATLRDRDSMRQIRAEISELPSIVQDLANGNITWADVEARYPLFEGQETGKKETIEE
- Fold change (+UV/-UV): 1
